{"source": "paper PMC7967050", "about": "(Advanced Science, 2021)", "key": {"[1]": {"molecular_target": "T1, Recombinant human CD38 extracellular domain (amino acids 43–300, hCD38-ECD) (Homo sapiens, UniProt P28907, biotin (EZ-Link NHS-PEG4-biotin) for panning and for capture on the SA biosensor; not said for the cross-linking)", "T1 construct": "human CD38, extracellular domain, amino acids 43-300; also called purified CD38; extracellular domain of human CD38; source: bought: Sino Biological, Cat. No. 10818-H08H", "assay": "BLI; Octet Red96, room temperature; biotin conjugated hCD38-ECD captured on SA biosensor; scFv in PBS, 0.02% Tween-20, 0.05% BSA, pH 7.4; association 300 s, dissociation 1200 s; 1:1 Langmuir model; for RP02 (biphasic dissociation) only the initial 0-330 s fitted, apparent KD", "details": "both partners purified"}, "ECD domain of mouse CD38": {"molecular_target": "T2, ECD domain of mouse CD38 (Mus musculus, UniProt P56528)", "T2 construct": "mouse CD38, extracellular domain; also called mCD38-ECD", "T2 sequence (P56528 45-304)": "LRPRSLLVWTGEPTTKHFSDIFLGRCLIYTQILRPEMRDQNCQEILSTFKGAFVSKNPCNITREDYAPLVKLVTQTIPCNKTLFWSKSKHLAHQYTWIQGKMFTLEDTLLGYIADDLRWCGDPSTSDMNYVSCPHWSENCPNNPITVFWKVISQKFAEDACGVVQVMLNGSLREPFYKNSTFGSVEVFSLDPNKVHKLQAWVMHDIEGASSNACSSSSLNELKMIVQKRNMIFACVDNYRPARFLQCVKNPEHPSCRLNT", "assay": "BLI; purified scFv antibodies against mCD38-ECD on an Octet; set-up for the mouse protein not told", "details": "both partners purified"}, "[2]": {"molecular_target": "T3, CD38 on the cell surface (RPMI8226, Daudi, hPBMC) (Homo sapiens, UniProt P28907)", "T3 construct": "human CD38, endogenous on the surface of RPMI8226, Daudi and PBMC cells; In the functional rows the same protein is also expressed in K562 cells from electroporated CD38 mRNA; also called cell surface CD38; membrane-expressed CD38; source: endogenous, on RPMI8226, Daudi and human PBMC cells", "assay": "flow cytometry on cells; purified scFv incubated with hPBMC, Daudi or RPMI8226 cells, fluorescence labeled secondary antibody; MFI normalised to that of 028 scFv", "details": "one partner purified"}}}
{"binder": "high-affinity anti-CD38 antibody 028 (scFv) (scFv, V domains shown, In the functional rows the scFv stands in a CAR on T cells; source: purified scFv) VH: QVQLVQSGAEVKKPGSSVKVSCKAFGGTFSSYAISWVRQAPGQGLEWMGRIIRFLGIANYAQKFQGRVTLIADKSTNTAYMELSSLRSEDTAVYYCAGEPGERDPDAVDIWGQGTMVTVSS VL: DIQMTQSPSSLSASVGDRVTITCRASQGIRSWLAWYQQKPEKAPKSLIYAASSLQSGVPSRFSGSGSGTDFTLTISSLQPEDFATYYCQQYNSYPLTFGGGTKVEIK", "values": [{"measurement": "Kd", "setting": "[1]", "result": 0.65, "unit": "nM"}]}
{"binder": "anti-CD38 scFv antibody RP02 (scFv, V domains shown, selected from a combinatorial scFv phage library; In the functional rows the scFv stands in a CAR on T cells; also called RP02 scFv; source: purified scFv) VH: PAQLVESGPGLVKPSGTLSLTCAVSGGSISSSNWWSWVRQPPGKGLEWIGEIYHSGSTNYNPSLKSRVTISVDKSKNQFSLKLSSVTAADTAVYYCAREDYYYYMDVWGKGTTVTVQS VL: QSVLTQPPSVSAAPGQKVTISCSGSSSNIGNNYVSWYQQLPGTAPKLLIYDNNKRPSGIPDRFSGSKSGTSATLGITGLQTGDEADYYCGTWDSSLSAGVFGGGTKLTVL", "values": [{"measurement": "binding result", "setting": "ECD domain of mouse CD38", "result": "no binding"}, {"measurement": "binding result", "setting": "[2]", "result": "binds"}]}
